According to paper doi:10.1101/2022.04.21.488985 (bioRxiv, 2022):

Target: T1, bovine serum albumin (Bos taurus, UniProt P02769)
T1 construct: also called BSA
Assay: ELISA

T1 sequence (P02769 25-607): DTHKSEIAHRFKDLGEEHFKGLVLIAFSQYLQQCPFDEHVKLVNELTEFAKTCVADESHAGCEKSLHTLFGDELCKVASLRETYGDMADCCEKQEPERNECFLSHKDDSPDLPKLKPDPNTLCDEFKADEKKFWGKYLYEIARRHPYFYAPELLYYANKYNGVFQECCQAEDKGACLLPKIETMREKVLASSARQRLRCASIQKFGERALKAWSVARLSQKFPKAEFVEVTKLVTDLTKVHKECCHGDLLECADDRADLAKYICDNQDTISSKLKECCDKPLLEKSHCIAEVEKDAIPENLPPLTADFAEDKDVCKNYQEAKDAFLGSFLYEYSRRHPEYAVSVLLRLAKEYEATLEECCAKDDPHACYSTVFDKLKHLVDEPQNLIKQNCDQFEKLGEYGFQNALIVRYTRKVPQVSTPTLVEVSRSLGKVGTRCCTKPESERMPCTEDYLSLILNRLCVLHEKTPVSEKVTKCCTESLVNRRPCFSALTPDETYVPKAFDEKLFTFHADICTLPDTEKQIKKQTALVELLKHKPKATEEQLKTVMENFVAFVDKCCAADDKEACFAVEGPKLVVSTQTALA

B1: D5 nanobody (camel VHH) (VHH)
VHH: AWQLVESGGGSVQPGGSLTLTCQASKSTFSTSGMRWERQAQGKGVEFVADISSDSTRKWYSDSVKGRFTISRSNWWRTVTLQMNDLKPEDTARYYCKDLESHHLRGQGTQVTVSS
notes: also called single domain antibody D5
binding result: no binding
